Assay results taken from publication PMC7509637 (Advanced Science, 2020).
“Also recorded” adds a separate entry of the source.

Experiments:
[1] = target: T1, Aβ (Homo sapiens, UniProt P05067); experiment: ThT kinetic assay of Aβ fibrillization (seeding with FapC species, Aβ seeds, bLgS); assay type: biochemical; details: 37 °C, n = 3
T1 construct: purchased Anaspec Inc
Procedure: FapC seeds (FapCS) were produced by FapC fibrils of three different ages. The FapC monomers were produced as described^[ ^45 ^] and stored in 6 M GdmCl. Prior to fibrillization, the FapC monomers were purified via a PD10 desalting column. FapC monomers (1 mg mL^−1 or 40 × 10^−6 M) were incubated in deionized water at 37 °C for 1 week to produce mature fibrils and at 37 °C or 25 °C for 4 d to obtain young fibrils. Deionized water was used to make FapC fibrils as it is convenient to transfer the samples to other experimental conditions, i.e., buffered Aβ solution or PBS for in vivo microinjection. However, bacterial amyloids like FapC and curli can make amyloids over a range of conditions.^[ ^93 ^] FapCS were produced by sonicating an aqueous solution of FapC fibrils (10 × 10^−6 M) at 20 power of a probe sonicator (Sonics Vibracell: 750 watts and 20 kHz) for 2 min with 1 s on/off cycle. For in vitro cross‐seeding experiments, 50 × 10^−6 M of Aβ monomers were incubated with 5 × 10^−6 M of FapCS (10:1 molar ratio, Aβ:FapCS) at 37 °C. bLg amyloids were synthesized by heating of bLg monomers (80 °C, pH 2) of 10 mg mL^−1 solution for 24 h. Prior to the production of bLgS, the bLg amyloid solution was brought to pH 7 and then sonicated, similar to FapC, to generate bLgS.
Aβ (Anaspec Inc., purity ≥ 95%) was dissolved in 100 µL of hexafluoro‐2‐propanol (HFIP) and incubated at room temperature for 3 h. The acquired aliquots of this solution were freeze dried and stored at −20 °C for further experimentation. […] For the ThT kinetic assay, a 100 µL of aqueous solution containing Aβ (50 × 10^−6 M), FapCS or bLgS (5 × 10^−6 M) and ThT dye (100 × 10^−6 M) was incubated (37 °C) in a 96‐well plate. The ThT fluorescence (excitation: 445 nm/ emission: 485 nm) was recorded at specified time intervals for 50 h. Kinetic parameters (rate constant k, half‐life t 1/2 and lag‐time) were calculated as described.^[ ^94 ^] Briefly, kinetic curves were fitted to a sigmoidal curve =y0+ymax−y0/1+e^−(t−t1/2)k , where y 0 and y max are initial and final ThT fluorescence values, allowing us to calculate lag time = t 1/2 − 2/k.

[2] = test system: adult zebrafish brain; experiment: IHC for Aβ deposition in brain of adult zebrafish; assay type: in vivo, zebrafish (AB, Danio rerio); details: two days postinjection (so in the source)
Procedure: Adult zebrafish (10 months) were employed for the study. Prior to microinjection, adult zebrafish were anesthetized by placing them in a beaker filled with ice‐chilled tricaine (0.01% in Holtfreter's buffer) for 20 s. […] The needle penetrated between left and right telencephalon for not more than 1 mm and injection volume was 1 µL. The syringe was washed with ethanol and PBS in between the injections. The injections were made under a stereomicroscope and fish were held in place with forceps. After microinjection, the fish was placed back in the water tank for recovery.
The head of the fish was separated at pectoral fin point with a sharp blade and fixed in paraformaldehyde as described in the “Animal husbandry and ethics statement” section. The fixed heads were dehydrated by dipping in gradual concentration of ethanol, i.e., 20%, 40%, 60%, 80%, and 100% with 10 min at each step. The heads were treated with 20% sucrose overnight, mounted with Tissue Trek OCT mounting medium at −20 °C. The heads were then sectioned into 20 × 10^−6 M thick section with a cryostat. The sections were mounted on a gelatinized glass slide and immunostained with antibodies. The sections were dried, washed thrice in PBS (pH 7.4), and TritonX‐100 (0.05% in PBS) for 5 min each. […] The sections were imaged by a fluorescence microscope and fluorescence intensities were measured from the images with Fiji ImageJ analysis.

[3] = test system: adult zebrafish brain; experiment: Synaptophysin IHC in brain of adult zebrafish; assay type: in vivo, zebrafish (AB, Danio rerio); details: for synaptophysin-positive synapses/cells (in words): n = 3
Procedure: Adult zebrafish (10 months) were employed for the study. Prior to microinjection, adult zebrafish were anesthetized by placing them in a beaker filled with ice‐chilled tricaine (0.01% in Holtfreter's buffer) for 20 s. The samples of Aβ alone and Aβ with FapCS or bacterial biofilm fragments were injected to the cerebroventricular space of adult fish with a 1 µL Hamilton glass syringe. The concentration of the Aβ peptide was 40 × 10^−6 M (in PBS, pH 7.4) while FapCS or biofilm fragments were included at a 10:1 ratio (Aβ:FapCS or biofilm fragments). The needle penetrated between left and right telencephalon for not more than 1 mm and injection volume was 1 µL. The syringe was washed with ethanol and PBS in between the injections. The injections were made under a stereomicroscope and fish were held in place with forceps. After microinjection, the fish was placed back in the water tank for recovery.
The deposition of Aβ, depletion of synaptophysin positive cells and TUNEL assay were measured by IHC. The adult fish, at 4 d or 2 weeks postinjection with Aβ and Aβ with FapCS or biofilm fragments, were euthanized by placing in ice‐chilled tricaine (0.4% in Holtfreter's buffer) for 1 min. The head of the fish was separated at pectoral fin point with a sharp blade and fixed in paraformaldehyde as described in the “Animal husbandry and ethics statement” section. The fixed heads were dehydrated by dipping in gradual concentration of ethanol, i.e., 20%, 40%, 60%, 80%, and 100% with 10 min at each step. The heads were treated with 20% sucrose overnight, mounted with Tissue Trek OCT mounting medium at −20 °C. The heads were then sectioned into […] section with a cryostat. The sections were mounted on a gelatinized glass slide and immunostained with antibodies. The sections were dried, washed thrice in PBS (pH 7.4), and TritonX‐100 (0.05% in PBS) for 5 min each. […] The sections were imaged by a fluorescence microscope and fluorescence intensities were measured from the images with Fiji ImageJ analysis.

[4] = test system: Aβ fibrils; experiment: AFM of fibrils, FiberApp statistical analysis; details: compared with the control
Procedure: Aβ incubated in the presence or absence of FapCS, FapC monomers, FapC fibrils or bLgS were subjected to TEM imaging. After incubation for 12 h, a drop of sample was applied on a glow‐discharged carbon‐coated copper grid. After 1 min, the sample was blotted and then negatively stained with uranyl acetate (1%) for 30 s. The dried grid was then imaged with a Technei F20 TEM at 200 kV. For AFM, a drop of sample was placed on freshly cleaved mica surface and rinsed with water after 2 min and dried with pressurized air. The sample was scanned with an AFM (Nanoscope VIII Multimode Scanning Force Microscopes, Bruker), covered with an acoustic hood to minimize the vibrational noise. Images were acquired under the tapping mode with a silicon nitride cantilever (Bruker). AFM images were processed with Nanoscope Analysis 1.5 software to flatten the background and to calculate the statistical parameters.

Molecule	fibrillization rate constant (k) ([1]; Aβ 50 × 10^−6 M alone or with FapCS 5 × 10^−6 M)	Aβ deposition in brain (in words) [2]	synaptophysin-positive synapses/cells (in words) ([3]; 2 weeks postinjection)	synaptophysin-positive synapses/cells (in words) ([3]; 4 d postinjection)	effect on half-life t1/2 of Aβ (in words) ([1]; 5 × 10^−6 M with Aβ 50 × 10^−6 M, **, p < 0.005)	effect on rate constant k of Aβ (in words) ([1]; 5 × 10^−6 M with Aβ 50 × 10^−6 M, FapCS *, p < 0.05, FapC monomer and fibrils **, p < 0.005)	lag time of Aβ (in words) ([1]; Aβ 50 × 10^−6 M with FapCS 5 × 10^−6 M, **, p < 0.005)	effect on Aβ fibrillization (ThT) ([1]; Aβ 50 × 10^−6 M, seeds/FapC species 5 × 10^−6 M, ThT fluorescence ex 445/em 485 nm)	rise in fibrillar diameter of Aβ upon seeding vs control [4]	synapse health (in words) ([3]; FapCS alone, 4 × 10^−6 M, Figure S13)
amyloid beta [Aβ]	0.7 h⁻¹	did not render any deposition in the fish brain	neurodegeneration of synaptophysin positive cells; also recorded: degenerate synaptophysin‐positive synapses	synaptophysin positive neuronal cells						
FapCS: FapC seeds obtained by sonication of mature FapC fibrils (P. aeruginosa) (protein) GNEGGWHPPKPNPQSNNKGGATALVVDTQQNYNNKVSNFGTLNNASVSGSIKDASGNVGVNVAAGDNNQQANAAALASADASFVFGTATASTSVLQSGYGNTLNNYSNPNTASLSNSANNVSGNLGVNVAAGNFNQQKNDLAAAVSNGQYSTAGSAASQTSTGNTTVNSANYAYGGTYVSLKLNADGSYKGTSDQIGDVYLDTWEGQTHPGGSNTGHIDVDSQAQGAKDLNHDGGAFAFKEKGDVDLKGTVSGFIPAIVGFKTPVTNNASLSNSLQNVSGNVGVNIAAGGGNQQSNSLSIAAGCSSCPAGGESLGF					significantly shortened	significantly increased	significantly shortened	acceleration of Aβ fibrillization	37%	Healthy synapses
